Test [1] addresses T1, His-MIRO-1 (C. elegans, UniProt Q94263 1-602).
T1 construct: C. elegans MIRO-1, residues 1-602; source: E. coli BL21 (DE3) codon plus, purified (Ni2+-Sepharose, size-exclusion chromatography)
T1 sequence (looked up): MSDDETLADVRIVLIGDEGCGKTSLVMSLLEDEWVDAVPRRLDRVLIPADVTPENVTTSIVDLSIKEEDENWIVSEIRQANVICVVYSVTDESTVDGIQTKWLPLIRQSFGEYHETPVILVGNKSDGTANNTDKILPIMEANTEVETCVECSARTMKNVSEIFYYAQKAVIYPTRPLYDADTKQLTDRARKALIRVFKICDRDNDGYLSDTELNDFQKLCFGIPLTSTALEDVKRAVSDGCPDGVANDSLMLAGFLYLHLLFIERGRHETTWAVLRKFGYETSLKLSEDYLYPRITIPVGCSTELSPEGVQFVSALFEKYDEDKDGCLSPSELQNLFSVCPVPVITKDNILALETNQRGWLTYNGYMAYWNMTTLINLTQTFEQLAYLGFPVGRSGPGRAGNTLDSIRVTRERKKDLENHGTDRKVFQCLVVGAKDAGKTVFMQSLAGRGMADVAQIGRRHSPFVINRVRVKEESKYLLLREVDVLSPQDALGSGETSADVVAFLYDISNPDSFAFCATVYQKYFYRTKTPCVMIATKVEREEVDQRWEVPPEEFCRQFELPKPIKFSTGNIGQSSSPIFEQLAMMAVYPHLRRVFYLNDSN
In words: SEC; analytical gel filtration of purified proteins, Superdex-200 10/300, 25 mM HEPES pH 7.4, 100 mM NaCl, 1 mM DTT, 1 mM EDTA; fractions analysed by SDS-PAGE with Coomassie-blue staining. The conditions noted are these: both partners purified. (In general: SEC sorts molecules by how far they enter the pores of the column.)

In test [2] the target is T2, Trx-MTX-1 (C. elegans, UniProt O45503 1-281).
T2 construct: C. elegans MTX-1, residues 1-281
T2 sequence (looked up): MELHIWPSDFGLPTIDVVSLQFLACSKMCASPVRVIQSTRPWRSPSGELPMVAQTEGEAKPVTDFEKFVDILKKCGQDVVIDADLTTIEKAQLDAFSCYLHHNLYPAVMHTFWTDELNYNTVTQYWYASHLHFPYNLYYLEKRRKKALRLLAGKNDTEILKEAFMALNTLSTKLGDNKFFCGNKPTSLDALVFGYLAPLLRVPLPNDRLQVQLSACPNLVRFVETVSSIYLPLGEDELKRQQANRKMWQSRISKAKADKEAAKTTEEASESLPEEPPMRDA
The test is described as above. To be noted: both partners purified.

B1: MTX-1/2 complex (formed by co-expression of Trx-MTX-1 and Trx-MTX-2) (complex, C. elegans)
chain 1: MELHIWPSDFGLPTIDVVSLQFLACSKMCASPVRVIQSTRPWRSPSGELPMVAQTEGEAKPVTDFEKFVDILKKCGQDVVIDADLTTIEKAQLDAFSCYLHHNLYPAVMHTFWTDELNYNTVTQYWYASHLHFPYNLYYLEKRRKKALRLLAGKNDTEILKEAFMALNTLSTKLGDNKFFCGNKPTSLDALVFGYLAPLLRVPLPNDRLQVQLSACPNLVRFVETVSSIYLPLGEDELKRQQANRKMWQSRISKAKADKEAAKTTEEASESLPEEPPMRDA
chain 2: MSSSGVITQLVTDALSMNAAQDWEDVSLFTPYLNDQALMYDFADCLAVQTFLRMTSLPFNVRQRPNVDFISPDGVVPLLKINKTLITGFNAIVDFVHKKGVTLTSHLSETQVADMRANISMIEHLLTTVEKFVLWNHDETYDKVTKLRYGSVYHWPLSSVLPFVKRRKILEELSDKDWDTKTMDEVGEQADKVFRALSAQLGSQKYLTGDLPTEADALLFGHMYTLITVR
notes: C. elegans MTX-1, residues 1-281; C. elegans MTX-2, full length; Complex formed beforehand by co-expression of the two chains; also called MTX-1/MTX-2 complex; metaxin complex; source: E. coli BL21 (DE3) codon plus, co-expressed (pRSFDuet-1); in cell lysate (pull-down); purified (Ni2+-Sepharose, size-exclusion chromatography) for gel filtration
For B1, the binding result in test [1] is given as “binds”.

B2: Trx-MTX-2 (natural protein, C. elegans, UniProt P34599 1-230, looked up)
chain: MSSSGVITQLVTDALSMNAAQDWEDVSLFTPYLNDQALMYDFADCLAVQTFLRMTSLPFNVRQRPNVDFISPDGVVPLLKINKTLITGFNAIVDFVHKKGVTLTSHLSETQVADMRANISMIEHLLTTVEKFVLWNHDETYDKVTKLRYGSVYHWPLSSVLPFVKRRKILEELSDKDWDTKTMDEVGEQADKVFRALSAQLGSQKYLTGDLPTEADALLFGHMYTLITVR
notes: C. elegans MTX-2, full length; source: E. coli BL21 (DE3) codon plus; in cell lysate (pull-down); purified (Ni2+-Sepharose, size-exclusion chromatography) for gel filtration
Turning to B2, the binding result in test [1] and in test [2] was “binds” each time.

Source of the values: paper PMC7782850, “Metaxins are core components of mitochondrial transport adaptor complexes” (Nature Communications, 2021).
